Here are results for one substance from PMC9825669.

The test addresses LtMCC α6β6 dodecamer (L. tarentolae (endogenous in L. tarentolae TATII/UC cells)). In words: filament lengths counted on cryoEM micrographs.

Several values for one entry are separate records, joined by “and”; a condition that tells them apart may be missing. Equal values may be shown once.

The stoichiometry N is a count of units in the complex or per binding partner. Regarding LtMCC α6β6 dodecamer (complex), the stoichiometry N was 4 and 6.
